T1: FcγRIIb extracellular domain with C-terminal His tag (human, UniProt P31994 43-217)
T1 construct: extracellular domain; Soluble receptor expressed in FreeStyle293 cells, used as analyte in Biacore; also called FcgRIIb; 2b; not shown: His tag attached to the C terminus
T1 sequence (looked up): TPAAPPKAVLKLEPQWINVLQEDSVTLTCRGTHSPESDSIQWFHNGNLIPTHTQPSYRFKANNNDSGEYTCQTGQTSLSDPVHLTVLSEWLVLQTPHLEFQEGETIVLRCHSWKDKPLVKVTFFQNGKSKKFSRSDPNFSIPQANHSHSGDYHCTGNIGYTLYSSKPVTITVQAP


Key:
[1] = molecular target: T2, FcγRIIIa extracellular domain with C-terminal His tag (human, UniProt P08637 17-208); assay: SPR (Biacore); ratio of He/Con_3a (FcγRIIIa) to He/Con_2b (FcγRIIb)
T2 construct: extracellular domain; Soluble receptor expressed in FreeStyle293 cells, used as analyte in Biacore; also called FcgRIIIa; 3a; not shown: His tag attached to the C terminus
T2 sequence (P08637 17-208): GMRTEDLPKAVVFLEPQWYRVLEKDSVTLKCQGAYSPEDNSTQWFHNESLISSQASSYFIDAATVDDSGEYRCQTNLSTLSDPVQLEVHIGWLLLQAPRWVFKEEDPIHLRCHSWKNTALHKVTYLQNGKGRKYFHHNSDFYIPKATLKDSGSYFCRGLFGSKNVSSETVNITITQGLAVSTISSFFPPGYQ
In short: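 Interaction analysis: He antibodies immobilized indirectly through captured antigen peptide (CM5 amine-coupled or SA-biotin), FcγR analytes flowed in running buffer at 25 °C, glycine-HCl pH 1.5 regeneration.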

[2] = molecular target: T1, FcγRIIb extracellular domain with …; assay: SPR (Biacore), antibody captured via antigen peptide, FcγR as analyte; binding amount relative to control heterodimerized antibody
Protocol: (§1) The heterodimerized antibodies He Abs in which one of the H chains was introduced with an alteration were assayed for their binding activities to each activating FcγR and inhibitory FcγR according to the method described in Example 4. […] The activating FcγRs in FIGS. 26, 27, 28, and 29 are FcγRIa, FcγRIIa (R), FcγRIIa (H), and FcγRIIIa, respectively.
(§2) Analysis of interaction between objective antibody and the FcγR was carried out using Biacore T100 (GE Healthcare). HBS-EP+ (GE Healthcare) was used as the running buffer, and the measurement temperature was set to 25° C. Chips produced by immobilizing the antigen peptide by the amine coupling method to a Series S Sencor Chip CM5 (GE Healthcare), or alternatively, chips produced by allowing preliminarily biotinylated antigen peptides to interact with and immobilize onto a Series S Sensor Chip SA (certified) (GE Healthcare) were used. Antibodies of interest were captured onto an antigen peptide-immobilized chip, and allowed to interact to each FcγR diluted with running buffer. To regenerate and repeatedly use the chip, the antibodies captured on the chip were washed off by reacting 10 mM glycine-HCl, pH 1.5.

[3] = molecular target: T2, FcγRIIIa extracellular domain with …; assay: as above
Protocol: as §1, §2

[4] = molecular target: T3, FcgRIIIa F (human, UniProt P08637 17-208); assay: SPR (Biacore); binding of the heterodimerized antibody relative to GpH7-A5/GpH7-B3/GpL16-k0 = 100
T3 construct: extracellular domain; also called FcγRIIIa F; 3aF; not shown: His tag attached to the C terminus
T3 sequence (P08637 17-208): as above

| Binder | IIIa/IIb (He_3a/2b) [1] [ratio] | He/Con_2b (IIb binding) [2] | He/Con_3a (IIIa binding) [3] | He/Con_3aF [4] |
| --- | --- | --- | --- | --- |
| GpH7-A5/GpH7-B3 variant I336_14T/GpL16-k0 (heterodimerized antibody, He Ab) (antibody, human IgG1, kappa, Anti-glypican-3 IgG1 heterodimerized antibody; the alteration stands only in the GpH7-B3 chain; Positions in EU numbering; also called I336T) heavy 1: not shown heavy 2: not shown light: DIVMTQSPLSLPVTPGEPASISCQASESLVHSNRNTYLHWYLQKPGQSPQLLIYKVSNRFSGVPDRFSGSGSGTDFTLKISRVEAEDVGVYYCSQNTHVPPTFGQGTKVEIERTVAAPSVFIFPPSDEQLKSGTASVVCLLNNFYPREAKVQWKVDNALQSGNSQESVTEQDSKDSTYSLSSTLTLSKADYEKHKVYACEVTHQGLSSPVTKSFNRGEC | 1.21 | 89.5 relative binding, GpH7-A5/GpH7-B3/GpL16-k0 = 100 | 108 relative binding, GpH7-A5/GpH7-B3/GpL16-k0 = 100 | – |
| GpH7-A5/GpH7-B3 variant K334_19Q/GpL16-k0 (heterodimerized antibody, He Ab) (antibody, human IgG1, kappa, Anti-glypican-3 IgG1 heterodimerized antibody; the alteration stands only in the GpH7-B3 chain; Positions in EU numbering; also called K334Q) heavy 1: not shown heavy 2: not shown light: DIVMTQSPLSLPVTPGEPASISCQASESLVHSNRNTYLHWYLQKPGQSPQLLIYKVSNRFSGVPDRFSGSGSGTDFTLKISRVEAEDVGVYYCSQNTHVPPTFGQGTKVEIERTVAAPSVFIFPPSDEQLKSGTASVVCLLNNFYPREAKVQWKVDNALQSGNSQESVTEQDSKDSTYSLSSTLTLSKADYEKHKVYACEVTHQGLSSPVTKSFNRGEC | 1.25 | 109 relative binding, GpH7-A5/GpH7-B3/GpL16-k0 = 100 | 136 relative binding, GpH7-A5/GpH7-B3/GpL16-k0 = 100 | – |
| GpH7-A5/GpH7-B3 variant (A330M)/GpL16-k0 (antibody, human IgG1, kappa, also called A330_06M; He Ab) heavy 1: not shown heavy 2: not shown light: DIVMTQSPLSLPVTPGEPASISCQASESLVHSNRNTYLHWYLQKPGQSPQLLIYKVSNRFSGVPDRFSGSGSGTDFTLKISRVEAEDVGVYYCSQNTHVPPTFGQGTKVEIERTVAAPSVFIFPPSDEQLKSGTASVVCLLNNFYPREAKVQWKVDNALQSGNSQESVTEQDSKDSTYSLSSTLTLSKADYEKHKVYACEVTHQGLSSPVTKSFNRGEC | – | – | – | 139 |
| GpH7-A5/GpH7-B3 variant I336_13S/GpL16-k0 (heterodimerized antibody, He Ab) (antibody, human IgG1, kappa, Anti-glypican-3 IgG1 heterodimerized antibody; the alteration stands only in the GpH7-B3 chain; Positions in EU numbering; also called I336S) heavy 1: not shown heavy 2: not shown light: DIVMTQSPLSLPVTPGEPASISCQASESLVHSNRNTYLHWYLQKPGQSPQLLIYKVSNRFSGVPDRFSGSGSGTDFTLKISRVEAEDVGVYYCSQNTHVPPTFGQGTKVEIERTVAAPSVFIFPPSDEQLKSGTASVVCLLNNFYPREAKVQWKVDNALQSGNSQESVTEQDSKDSTYSLSSTLTLSKADYEKHKVYACEVTHQGLSSPVTKSFNRGEC | 1.21 | 83.7 relative binding, GpH7-A5/GpH7-B3/GpL16-k0 = 100 | 102 relative binding, GpH7-A5/GpH7-B3/GpL16-k0 = 100 | – |
| GpH7-A5/GpH7-B3 variant I336_03V/GpL16-k0 (heterodimerized antibody, He Ab) (antibody, human IgG1, kappa, Anti-glypican-3 IgG1 heterodimerized antibody; the alteration stands only in the GpH7-B3 chain; Positions in EU numbering; also called I336V) heavy 1: not shown heavy 2: not shown light: DIVMTQSPLSLPVTPGEPASISCQASESLVHSNRNTYLHWYLQKPGQSPQLLIYKVSNRFSGVPDRFSGSGSGTDFTLKISRVEAEDVGVYYCSQNTHVPPTFGQGTKVEIERTVAAPSVFIFPPSDEQLKSGTASVVCLLNNFYPREAKVQWKVDNALQSGNSQESVTEQDSKDSTYSLSSTLTLSKADYEKHKVYACEVTHQGLSSPVTKSFNRGEC | 1.24 | 90.3 relative binding, GpH7-A5/GpH7-B3/GpL16-k0 = 100 | 112 relative binding, GpH7-A5/GpH7-B3/GpL16-k0 = 100 | – |

Continued, values first:

| IIIa/IIb (He_3a/2b) [1] [ratio] | He/Con_2b (IIb binding) [2] | He/Con_3a (IIIa binding) [3] | He/Con_3aF [4] | Binder |
| --- | --- | --- | --- | --- |
| 1.23 | 115 relative binding, GpH7-A5/GpH7-B3/GpL16-k0 = 100 | 141 relative binding, GpH7-A5/GpH7-B3/GpL16-k0 = 100 | – | GpH7-A5/GpH7-B3 variant K334_14T/GpL16-k0 (heterodimerized antibody, He Ab) (antibody, human IgG1, kappa, Anti-glypican-3 IgG1 heterodimerized antibody; the alteration stands only in the GpH7-B3 chain; Positions in EU numbering; also called K334T) heavy 1: not shown heavy 2: not shown light: DIVMTQSPLSLPVTPGEPASISCQASESLVHSNRNTYLHWYLQKPGQSPQLLIYKVSNRFSGVPDRFSGSGSGTDFTLKISRVEAEDVGVYYCSQNTHVPPTFGQGTKVEIERTVAAPSVFIFPPSDEQLKSGTASVVCLLNNFYPREAKVQWKVDNALQSGNSQESVTEQDSKDSTYSLSSTLTLSKADYEKHKVYACEVTHQGLSSPVTKSFNRGEC |
| 1.23 | 104 relative binding, GpH7-A5/GpH7-B3/GpL16-k0 = 100 | 128 relative binding, GpH7-A5/GpH7-B3/GpL16-k0 = 100 | – | GpH7-A5/GpH7-B3 variant K334_20W/GpL16-k0 (heterodimerized antibody, He Ab) (antibody, human IgG1, kappa, Anti-glypican-3 IgG1 heterodimerized antibody; the alteration stands only in the GpH7-B3 chain; Positions in EU numbering; also called K334W) heavy 1: not shown heavy 2: not shown light: DIVMTQSPLSLPVTPGEPASISCQASESLVHSNRNTYLHWYLQKPGQSPQLLIYKVSNRFSGVPDRFSGSGSGTDFTLKISRVEAEDVGVYYCSQNTHVPPTFGQGTKVEIERTVAAPSVFIFPPSDEQLKSGTASVVCLLNNFYPREAKVQWKVDNALQSGNSQESVTEQDSKDSTYSLSSTLTLSKADYEKHKVYACEVTHQGLSSPVTKSFNRGEC |
| 1.29 | 109 relative binding, GpH7-A5/GpH7-B3/GpL16-k0 = 100 | 141 relative binding, GpH7-A5/GpH7-B3/GpL16-k0 = 100 | – | GpH7-A5/GpH7-B3 variant K334_15Y/GpL16-k0 (heterodimerized antibody, He Ab) (antibody, human IgG1, kappa, Anti-glypican-3 IgG1 heterodimerized antibody; the alteration stands only in the GpH7-B3 chain; Positions in EU numbering; also called K334Y) heavy 1: not shown heavy 2: not shown light: DIVMTQSPLSLPVTPGEPASISCQASESLVHSNRNTYLHWYLQKPGQSPQLLIYKVSNRFSGVPDRFSGSGSGTDFTLKISRVEAEDVGVYYCSQNTHVPPTFGQGTKVEIERTVAAPSVFIFPPSDEQLKSGTASVVCLLNNFYPREAKVQWKVDNALQSGNSQESVTEQDSKDSTYSLSSTLTLSKADYEKHKVYACEVTHQGLSSPVTKSFNRGEC |
